In patent publication US20250019439A1 (Adimab, published 2025):

Tests used:
ADI-26906 IgG = biological target: T1, ADI-26906 IgG; test: SPR Carterra avidity, yeast anti-ID, *koff limit
T1 construct: anti-CD3 IgG
In short: (§1)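 Surface plasmon resonance on a Carterra LSA at 25° C, HBSTE buffer. The anti-CD3 antibody is Fc-captured (100 nM, 5 min) and the anti-idiotype antibody serves as analyte; dissociation lasts 300s and the surface is regenerated with 10 mM glycine pH 1.7.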

ADI-74967 = biological target: T2, ADI-74967; test: SPR Carterra avidity, yeast anti-ID, *koff limit
T2 construct: pH-dependent anti-CD3 antibody made in CHO cells
In short: as §1

ADI-26920 IgG = biological target: T3, ADI-26920 IgG; test: SPR Carterra avidity, yeast anti-ID, *koff limit
T3 construct: anti-CD3 IgG
In short: as §1

ADI-76357 = biological target: T4, ADI-76357; test: SPR Carterra avidity, yeast anti-ID, *koff limit
T4 construct: anti-CD3 antibody made in CHO cells, captured by anti-human Fc
In short: as §1

ADI-76361 = biological target: T5, ADI-76361; test: SPR Carterra avidity, yeast anti-ID, *koff limit
T5 construct: anti-CD3 antibody made in CHO cells, captured by anti-human Fc
In short: as §1

ADI-50024 = biological target: T6, ADI-50024; test: SPR Carterra avidity, yeast anti-ID, *koff limit
T6 construct: anti-CD3 antibody made in CHO cells, captured by anti-human Fc
T6 sequence (VH, as listed by the source limits assumed, chain 1 of 2): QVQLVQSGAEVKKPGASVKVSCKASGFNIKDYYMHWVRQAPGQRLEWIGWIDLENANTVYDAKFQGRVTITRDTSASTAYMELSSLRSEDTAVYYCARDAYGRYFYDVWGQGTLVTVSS
T6 sequence (VL, as listed by the source limits assumed, chain 2 of 2): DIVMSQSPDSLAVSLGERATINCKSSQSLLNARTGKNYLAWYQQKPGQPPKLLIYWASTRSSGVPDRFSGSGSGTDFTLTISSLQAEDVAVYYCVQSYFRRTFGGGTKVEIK
In short: as §1

ADI-22523 IgG = biological target: T7, ADI-22523 IgG; test: BLI; tip anti-ID IgG, solution ADI-22523 IgG
T7 construct: anti-CD3 IgG
T7 sequence (VH, as listed by the source limits assumed, chain 1 of 2): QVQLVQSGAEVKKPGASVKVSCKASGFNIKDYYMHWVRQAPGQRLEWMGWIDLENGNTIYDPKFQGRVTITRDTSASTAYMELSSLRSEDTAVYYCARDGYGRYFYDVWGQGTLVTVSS
T7 sequence (VL, as listed by the source limits assumed, chain 2 of 2): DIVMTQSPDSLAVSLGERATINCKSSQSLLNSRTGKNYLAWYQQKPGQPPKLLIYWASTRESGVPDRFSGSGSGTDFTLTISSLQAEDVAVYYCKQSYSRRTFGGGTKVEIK
In short: (§2)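 Anti-ID IgG was captured on AHC biosensors, equilibrated in assay buffer for 30 min, then baselined for 60 s. KD = koff/kon came from a 1:1 binding fit.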

ADI-22523 Fab = biological target: T8, ADI-22523 Fab; test: BLI; tip anti-ID IgG, solution ADI-22523 Fab
T8 construct: anti-CD3 Fab by papain digestion of the IgG
In short: as §2

ADI-26912 = biological target: T9, ADI-26912; test: SPR Carterra avidity, yeast anti-ID
T9 construct: anti-CD3 antibody made in CHO cells, captured by anti-human Fc
In short: as §1

ADI-48576 = biological target: T10, ADI-48576; test: SPR Carterra avidity, yeast anti-ID
T10 construct: pH-dependent anti-CD3 antibody made in CHO cells
In short: as §1

ADI-67445 = biological target: T11, ADI-67445; test: SPR Carterra avidity, yeast anti-ID
T11 construct: anti-CD3 antibody made in CHO cells, captured by anti-human Fc
T11 sequence (VH, as listed by the source limits assumed, chain 1 of 2): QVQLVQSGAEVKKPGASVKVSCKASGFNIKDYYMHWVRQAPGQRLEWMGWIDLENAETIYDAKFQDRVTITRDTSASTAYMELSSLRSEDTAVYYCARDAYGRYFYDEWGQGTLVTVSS
T11 sequence (VL, as listed by the source limits assumed, chain 2 of 2): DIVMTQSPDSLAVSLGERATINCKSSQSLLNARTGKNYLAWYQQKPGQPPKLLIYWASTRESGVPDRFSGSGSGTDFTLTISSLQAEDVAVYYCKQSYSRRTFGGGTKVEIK
In short: as §1

ADI-76359 = biological target: T12, ADI-76359; test: SPR Carterra avidity, yeast anti-ID
T12 construct: anti-CD3 antibody made in CHO cells, captured by anti-human Fc
In short: as §1

ADI-26921 IgG = biological target: T13, ADI-26921 IgG; test: SPR Carterra avidity, yeast anti-ID
T13 construct: anti-CD3 IgG
In short: as §1

ADI-26913 IgG = biological target: T14, ADI-26913 IgG; test: SPR Carterra avidity, yeast anti-ID
T14 construct: anti-CD3 IgG
In short: as §1

ADI-26924 = biological target: T15, ADI-26924; test: SPR Carterra avidity, yeast anti-ID
T15 construct: anti-CD3 antibody made in CHO cells, captured by anti-human Fc
T15 sequence (VH, as listed by the source, chain 1 of 2): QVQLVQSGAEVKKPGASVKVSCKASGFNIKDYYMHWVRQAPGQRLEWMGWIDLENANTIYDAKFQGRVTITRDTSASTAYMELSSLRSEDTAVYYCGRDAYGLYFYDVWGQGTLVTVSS
T15 sequence (VL, as listed by the source, chain 2 of 2): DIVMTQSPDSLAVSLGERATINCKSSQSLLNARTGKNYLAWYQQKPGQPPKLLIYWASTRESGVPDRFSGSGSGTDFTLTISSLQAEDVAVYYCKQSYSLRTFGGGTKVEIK
In short: as §1

CTL-62223 = biological target: T16, CTL-62223; test: SPR Carterra avidity, yeast anti-ID
T16 construct: also called mosunetuzumab
In short: as §1

ADI-48587 = biological target: T17, ADI-48587; test: SPR Carterra avidity, yeast anti-ID
T17 construct: pH-dependent anti-CD3 antibody made in CHO cells
T17 sequence (VH, as listed by the source, chain 1 of 2): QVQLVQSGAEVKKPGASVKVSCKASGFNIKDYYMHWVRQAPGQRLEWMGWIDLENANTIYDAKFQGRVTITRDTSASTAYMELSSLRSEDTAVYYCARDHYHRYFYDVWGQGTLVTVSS
T17 sequence (VL, as listed by the source, chain 2 of 2): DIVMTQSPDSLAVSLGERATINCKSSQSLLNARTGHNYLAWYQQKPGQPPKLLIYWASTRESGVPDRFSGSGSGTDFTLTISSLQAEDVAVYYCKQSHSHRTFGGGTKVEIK
In short: as §1

ADI-70330 = biological target: T18, ADI-70330; test: SPR Carterra avidity, yeast anti-ID
T18 construct: anti-CD3 antibody made in CHO cells, captured by anti-human Fc
In short: as §1

ADI-26943 = biological target: T19, ADI-26943; test: SPR Carterra avidity, yeast anti-ID
T19 construct: anti-CD3 antibody made in CHO cells, captured by anti-human Fc
In short: as §1

ADI-26915 = biological target: T20, ADI-26915; test: SPR Carterra avidity, yeast anti-ID
T20 construct: anti-CD3 antibody made in CHO cells, captured by anti-human Fc
T20 sequence (VH, as listed by the source, chain 1 of 2): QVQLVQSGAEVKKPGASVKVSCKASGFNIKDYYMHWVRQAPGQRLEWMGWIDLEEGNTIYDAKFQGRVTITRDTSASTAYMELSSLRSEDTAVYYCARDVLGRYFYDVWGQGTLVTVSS
In short: as §1

ADI-70326 = biological target: T21, ADI-70326; test: SPR Carterra avidity, yeast anti-ID
T21 construct: anti-CD3 antibody made in CHO cells, captured by anti-human Fc
T21 sequence (VH, as listed by the source limits assumed, chain 1 of 2): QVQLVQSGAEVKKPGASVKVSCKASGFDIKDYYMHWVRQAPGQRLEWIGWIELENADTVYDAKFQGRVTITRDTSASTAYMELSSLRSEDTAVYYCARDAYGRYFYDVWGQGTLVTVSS
In short: as §1

ADI-74966 = biological target: T22, ADI-74966; test: SPR Carterra avidity, yeast anti-ID
T22 construct: pH-dependent anti-CD3 antibody made in CHO cells
In short: as §1

ADI-76360 = biological target: T23, ADI-76360; test: SPR Carterra avidity, yeast anti-ID
T23 construct: anti-CD3 antibody made in CHO cells, captured by anti-human Fc
T23 sequence (VH, as listed by the source, chain 1 of 2): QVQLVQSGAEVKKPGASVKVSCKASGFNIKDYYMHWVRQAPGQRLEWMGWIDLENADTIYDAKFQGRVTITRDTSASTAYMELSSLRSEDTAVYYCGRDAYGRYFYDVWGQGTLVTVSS
In short: as §1

ADI-26916 IgG = biological target: T24, ADI-26916 IgG; test: SPR Carterra avidity, yeast anti-ID
T24 construct: anti-CD3 IgG
T24 sequence (VH, as listed by the source, chain 1 of 2): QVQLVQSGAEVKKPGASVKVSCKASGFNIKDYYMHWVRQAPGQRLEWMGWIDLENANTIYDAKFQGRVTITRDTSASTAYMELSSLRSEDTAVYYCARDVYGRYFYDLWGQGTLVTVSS
In short: as §1

ADI-48592 = biological target: T25, ADI-48592; test: SPR Carterra avidity, yeast anti-ID
T25 construct: pH-dependent anti-CD3 antibody made in CHO cells
T25 sequence (VH, as listed by the source, chain 1 of 2): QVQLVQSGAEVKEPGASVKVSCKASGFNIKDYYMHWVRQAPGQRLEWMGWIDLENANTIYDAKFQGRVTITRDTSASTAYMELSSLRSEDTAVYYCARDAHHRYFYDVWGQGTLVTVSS
T25 sequence (VL, as listed by the source, chain 2 of 2): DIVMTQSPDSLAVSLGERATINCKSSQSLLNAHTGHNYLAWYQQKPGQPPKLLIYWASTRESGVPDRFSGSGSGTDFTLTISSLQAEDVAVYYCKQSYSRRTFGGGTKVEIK
In short: as §1

ADI-70327 = biological target: T26, ADI-70327; test: SPR Carterra avidity, yeast anti-ID
T26 construct: anti-CD3 antibody made in CHO cells, captured by anti-human Fc
In short: as §1

ADI-76362 = biological target: T27, ADI-76362; test: SPR Carterra avidity, yeast anti-ID
T27 construct: anti-CD3 antibody made in CHO cells, captured by anti-human Fc
T27 sequence (VH, as listed by the source, chain 1 of 2): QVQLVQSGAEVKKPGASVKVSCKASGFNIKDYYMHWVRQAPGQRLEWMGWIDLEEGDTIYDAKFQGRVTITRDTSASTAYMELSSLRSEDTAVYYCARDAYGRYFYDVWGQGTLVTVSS
In short: as §1

ADI-26909 = biological target: T28, ADI-26909; test: SPR Carterra avidity, yeast anti-ID
T28 construct: anti-CD3 antibody made in CHO cells, captured by anti-human Fc
In short: as §1

ADI-48650 = biological target: T29, ADI-48650; test: SPR Carterra avidity, yeast anti-ID
T29 construct: pH-dependent anti-CD3 antibody made in CHO cells
In short: as §1

ADI-74968 = biological target: T30, ADI-74968; test: SPR Carterra avidity, yeast anti-ID
T30 construct: pH-dependent anti-CD3 antibody made in CHO cells
T30 sequence (VH, as listed by the source, chain 1 of 2): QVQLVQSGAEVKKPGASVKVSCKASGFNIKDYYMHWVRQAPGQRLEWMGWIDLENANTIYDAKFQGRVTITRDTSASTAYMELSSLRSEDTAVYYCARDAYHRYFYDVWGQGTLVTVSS
T30 sequence (VL, as listed by the source, chain 2 of 2): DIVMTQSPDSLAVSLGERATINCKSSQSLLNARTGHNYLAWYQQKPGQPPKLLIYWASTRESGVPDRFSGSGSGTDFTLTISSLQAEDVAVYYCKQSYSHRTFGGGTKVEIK
In short: as §1

ADI-67450 = biological target: T31, ADI-67450; test: SPR Carterra avidity, yeast anti-ID
T31 construct: anti-CD3 antibody made in CHO cells, captured by anti-human Fc
T31 sequence (VH, as listed by the source limits assumed, chain 1 of 2): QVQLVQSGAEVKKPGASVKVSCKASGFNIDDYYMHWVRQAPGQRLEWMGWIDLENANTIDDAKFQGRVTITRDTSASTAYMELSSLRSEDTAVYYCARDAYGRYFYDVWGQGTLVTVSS
In short: as §1

ADI-67447 = biological target: T32, ADI-67447; test: SPR Carterra avidity, yeast anti-ID
T32 construct: anti-CD3 antibody made in CHO cells, captured by anti-human Fc
In short: as §1

ADI-74965 = biological target: T33, ADI-74965; test: SPR Carterra avidity, yeast anti-ID
T33 construct: pH-dependent anti-CD3 antibody made in CHO cells
In short: as §1

ADI-76358 = biological target: T34, ADI-76358; test: SPR Carterra avidity, yeast anti-ID
T34 construct: anti-CD3 antibody made in CHO cells, captured by anti-human Fc
T34 sequence (VH, as listed by the source, chain 1 of 2): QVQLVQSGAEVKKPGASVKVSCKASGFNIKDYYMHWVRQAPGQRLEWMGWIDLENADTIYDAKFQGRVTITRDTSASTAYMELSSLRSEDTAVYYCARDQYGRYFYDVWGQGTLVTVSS
In short: as §1

ADI-26919 = biological target: T35, ADI-26919; test: SPR Carterra avidity, yeast anti-ID
T35 construct: anti-CD3 antibody made in CHO cells, captured by anti-human Fc
T35 sequence (VH, as listed by the source limits assumed, chain 1 of 2): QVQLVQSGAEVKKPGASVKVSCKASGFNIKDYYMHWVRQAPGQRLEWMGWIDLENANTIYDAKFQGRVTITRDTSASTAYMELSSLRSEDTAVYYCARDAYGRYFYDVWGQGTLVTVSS
In short: as §1

B1: ADI-34136 (antibody, V domains shown)
VH: QVQLVQSGAEVKKPGSSVKVSCKASGGTFSSYAISWVRQAPGQGLEWMGGIIPIFGTANYAQKFQGRVTITADESTSTAYMELSSLRSEDTAVYYCARGAPNYYGSGGYDDGWFDPWGQGTLVTVSS
VL: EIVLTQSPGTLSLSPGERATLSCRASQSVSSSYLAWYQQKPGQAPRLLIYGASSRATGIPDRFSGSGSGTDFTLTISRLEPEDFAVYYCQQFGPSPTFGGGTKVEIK
notes: anti-ID IgG
Kd (ADI-26906 IgG): 250 pM
Kd (ADI-74967): 150 pM
Kd (ADI-26920 IgG): 140 pM
Kd (ADI-76357): 120 pM
Kd (ADI-76361): 100 pM
Kd (ADI-50024): 420 pM
Kd (ADI-22523 IgG): 750 pM
Kd (ADI-22523 Fab): 30400 pM
binding result (ADI-26912): binds
Kd (ADI-48576): 29000 pM
Kd (ADI-67445): 340 pM
Kd (ADI-76359): 120 pM
Kd (ADI-26921 IgG): 180 pM
Kd (ADI-26913 IgG): 180 pM
Kd (ADI-26924): 170 pM
Kd (CTL-62223): 1200 pM
Kd (ADI-48587): 1900 pM
Kd (ADI-70330): 420 pM
Kd (ADI-26943): 250 pM
binding result (ADI-26915): binds
Kd (ADI-70326): 2100 pM
Kd (ADI-74966): 640 pM
Kd (ADI-76360): 350 pM
Kd (ADI-26916 IgG): 350 pM
binding result (ADI-48592): binds
Kd (ADI-70327): 2000 pM
Kd (ADI-76362): 140 pM
Kd (ADI-26909): 300 pM
Kd (ADI-48650): 3300 pM
Kd (ADI-74968): 1200 pM
Kd (ADI-67450): 560 pM
Kd (ADI-67447): 180 pM
Kd (ADI-74965): 9400 pM
Kd (ADI-76358): 730 pM
Kd (ADI-26919): 160 pM
